Data as given in article PMC6275079.

Target: caveolin-1 (rat (endogenous in cerebellar granule neurons)) (UniProt P41350)
Assay: co-IP; anti-caveolin-1 (sc-894) on ImmunoCruz IP/WB Optima matrix; 400 µg of CGN lysate treated with 1% Triton X-100 for 30 min, incubated overnight at 4 °C, washed with Tris-buffered saline; PKA and CaMK-II detected by Western blot in precipitate and supernatant, percent by densitometry

Sequence of UniProt P41350 (P41350 whole entry): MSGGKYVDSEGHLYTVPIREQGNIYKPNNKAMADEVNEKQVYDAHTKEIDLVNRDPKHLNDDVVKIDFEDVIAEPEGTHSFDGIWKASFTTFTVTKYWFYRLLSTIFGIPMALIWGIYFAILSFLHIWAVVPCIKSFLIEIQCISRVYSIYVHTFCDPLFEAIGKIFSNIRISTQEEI

calmodulin-dependent protein kinase II (from UniProt P11275 1-478) (enzyme)
percentage of coimmunoprecipitation with caveolin-1: 39%

protein kinase A (from UniProt P27791 1-351) (enzyme)
percentage of coimmunoprecipitation with caveolin-1: 16%
